The nature of series [1]: Western blot of yeast culture supernatant, 30°C. Conditions: glycan lost; control: wild-type full-length GA. For orientation: In western blotting, separated proteins are transferred to a membrane and probed.
Series [2] can be described thus: extracellular GA activity of yeast cultures, 30°C. Particulars: glycan lost; control: wild-type full-length GA.

B1: Rhizopus oryzae glucoamylase (RoGA): Asn167 to Gln (protein)
parent chain: MQLFNLPLKVSFFLVLSYFSLLVSAASIPSSASVQLDSYNYDGSTFSGKIYVKNIAYSKKVTVIYADGSDNWNNNGNTIAASYSAPISGSNYEYWTFSASINGIKEFYIKYEVSGKTYYDNNNSANYQVSTSKPTTTTATATTTTAPSTSTTTPPSRSEPATFPTGNSTISSWIKKQEGISRFAMLRNINPPGSATGFIAASLSTAGPDYYYAWTRDAALTSNVIVYEYNTTLSGNKTILNVLKDYVTFSVKTQSTSTVCNCLGEPKFNPDASGYTGAWGRPQNDGPAERATTFILFADSYLTQTKDASYVTGTLKPAIFKDLDYVVNVWSNGCFDLWEEVNGVHFYTLMVMRKGLLLGADFAKRNGDSTRASTYSSTASTIANKISSFWVSSNNWIQVSQSVTGGVSKKGLDVSTLLAANLGSVDDGFFTPGSEKILATAVAVEDSFASLYPINKNLPSYLGNSIGRYPEDTYNGNGNSQGNSWFLAVTGYAELYYRAIKEWIGNGGVTVSSISLPFFKKFDSSATSGKKYTVGTSDFNNLAQNIALAADRFLSTVQLHAHNNGSLAEEFDRTTGLSTGARDLTWSHASLITASYAKAGAPAA
On to B1, for which the expression_or_secretion entry in series [1] was “decreases”.

B2: Rhizopus oryzae glucoamylase (RoGA): T165A (protein)
parent chain: B1 parent chain
Regarding B2, the expression_or_secretion result in series [1] is “no change”. The enzymatic_activity entry in series [2] was “no change”.
